Measurements taken from paper PMC8517440, “Structural and Catalytic Characterization of TsBGL, a β-Glucosidase From Thermofilum sp. ex4484_79” (Frontiers in Microbiology, 2021).

Legend:
purified protein [1] = substrate: O=[N+]([O-])c1ccc(O[C@@H]2O[C@H](CO)[C@@H](O)[C@H](O)[C@H]2O)cc1; experiment: purified protein; type: biochemical, Thermofilum sp. ex4484_79; details: pH 5.0, 90°C, 0.1-6.0 mM substrate, kcat printed 135.1 in Table 2
purified protein [2] = substrate: O=[N+]([O-])c1ccc(O[C@@H]2O[C@H](CO)[C@H](O)[C@H](O)[C@H]2O)cc1; experiment: purified protein; type: biochemical, Thermofilum sp. ex4484_79; details: pH 5.0, 90°C, table header prints mm^-1, text prints 1.05 mm

B1: TsBGL (Thermofilum sp. ex4484_79) (protein)
chain: MPFPEKFFWGASSSGFQFEMGDPEGKSIDPNTDWFKWVHDETNIRRGVVSGDLPEHGINYWDLFRSDHELAASIGMNAYRIGIEWSRIFPKPTLDVRVGIELDPEGYITRVEVDDKAIEELDLLANKEAVSRYREIILDLRDRGLKVFVCLNHFTLPLWIHDPIACRDTKLKRGPKGWVDKTTILEFAKYSAYMAWSLGNIVDYWVTFNEPMVVTEAGYFQPEVGFPPGLRNISAFKTACLNIANAHVVAYDLIKKYDKVRADDDSPSAAYVGIVHNIVPIKPYSERKLDLKAADLMNYIHNKWILEFIVRGKIDRSLVGREKYLIDKFKDKLDWLGVNYYTRIVLKGKWVPPLISPVPVIPDIVKGYGFNCTPGGRSLDGMPVSDFGWEVYPQGLSDALDIASEYGKPLIVTENGIADSEDNIRPYFLVSHLKVLEEYVEKKKNVYGYLHWALTDNYEWAQGFKMRFGLTDVDLETKERKPRESSEVFKIIASEKTVPEELVEKYPKPIF
notes: synthetic gene in E. coli BL21(DE3) pLysS; N-terminal His6-SUMO tag cut with Ulp1; check)
For B1, the Km (purified protein [1]) was 617 µM, the kcat (purified protein [1]) was 136.05 s⁻¹ and the Km (purified protein [2]) was 1054 µM. The kcat (purified protein [2]) was 124 s⁻¹ and the kcat/Km (purified protein [2]) was 118000 M⁻¹ s⁻¹.
